Results published in patent publication US20070286806A1, “Methods and Compositions for Modulating a Steroid Receptor” (Mount Sinai Hospital, priority 2004, published 2007).

Assays:
[1] = target: myometrial progesterone receptors; details: cited from earlier work
[2] = target: T1, progesterone receptor isoform B (PRB), full length (Homo sapiens (Human), UniProt P06401 1-933); assay: summary of Example 1; in vivo and in vitro protein interaction assays
T1 construct: From expression vector pSG5 PRB; expressed in 293T or SHM cells, or translated in rabbit reticulocyte lysate with ^35S methionine for the GST pulldown; also called ^35S-labeled PRB; full length PR
T1 sequence: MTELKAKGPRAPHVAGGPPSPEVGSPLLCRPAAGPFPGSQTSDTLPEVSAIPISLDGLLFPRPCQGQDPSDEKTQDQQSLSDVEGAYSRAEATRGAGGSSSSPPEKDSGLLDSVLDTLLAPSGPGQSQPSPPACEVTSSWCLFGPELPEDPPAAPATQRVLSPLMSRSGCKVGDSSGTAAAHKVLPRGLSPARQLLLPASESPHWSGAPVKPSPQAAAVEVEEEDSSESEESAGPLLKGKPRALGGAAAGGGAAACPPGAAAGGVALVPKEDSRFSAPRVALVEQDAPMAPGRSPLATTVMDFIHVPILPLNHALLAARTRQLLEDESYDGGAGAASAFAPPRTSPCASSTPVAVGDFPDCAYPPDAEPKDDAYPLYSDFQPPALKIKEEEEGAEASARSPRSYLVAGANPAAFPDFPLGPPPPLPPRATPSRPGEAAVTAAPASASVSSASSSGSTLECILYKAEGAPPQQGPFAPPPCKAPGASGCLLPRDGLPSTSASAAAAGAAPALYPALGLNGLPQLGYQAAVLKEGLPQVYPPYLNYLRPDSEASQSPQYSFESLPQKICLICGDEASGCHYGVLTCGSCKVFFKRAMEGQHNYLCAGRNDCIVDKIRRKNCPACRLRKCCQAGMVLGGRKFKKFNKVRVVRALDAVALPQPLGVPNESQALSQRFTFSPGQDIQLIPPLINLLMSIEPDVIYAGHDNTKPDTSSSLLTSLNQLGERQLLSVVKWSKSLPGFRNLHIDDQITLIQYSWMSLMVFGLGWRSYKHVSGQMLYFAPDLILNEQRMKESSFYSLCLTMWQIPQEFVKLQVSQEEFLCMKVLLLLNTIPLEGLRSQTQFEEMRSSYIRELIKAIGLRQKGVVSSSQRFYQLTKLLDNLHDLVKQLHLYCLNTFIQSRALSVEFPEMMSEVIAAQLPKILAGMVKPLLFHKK

[3] = target: T2, PR DNA binding domain / PRE (Homo sapiens, UniProt P06401); assay: Electrophoretic Mobility Shift Assay of PR binding to PRE; details: nuclear extract of 293T cells transfected with Flag-PRB, increasing doses
T2 construct: PR 556-650 was also inserted downstream of T7 promoter of pcDNA3; made in house; host or cells: rabbit reticulocyte lysate (TNT, Promega); GST-PSF from E. coli
T2 sequence (P06401 1-933): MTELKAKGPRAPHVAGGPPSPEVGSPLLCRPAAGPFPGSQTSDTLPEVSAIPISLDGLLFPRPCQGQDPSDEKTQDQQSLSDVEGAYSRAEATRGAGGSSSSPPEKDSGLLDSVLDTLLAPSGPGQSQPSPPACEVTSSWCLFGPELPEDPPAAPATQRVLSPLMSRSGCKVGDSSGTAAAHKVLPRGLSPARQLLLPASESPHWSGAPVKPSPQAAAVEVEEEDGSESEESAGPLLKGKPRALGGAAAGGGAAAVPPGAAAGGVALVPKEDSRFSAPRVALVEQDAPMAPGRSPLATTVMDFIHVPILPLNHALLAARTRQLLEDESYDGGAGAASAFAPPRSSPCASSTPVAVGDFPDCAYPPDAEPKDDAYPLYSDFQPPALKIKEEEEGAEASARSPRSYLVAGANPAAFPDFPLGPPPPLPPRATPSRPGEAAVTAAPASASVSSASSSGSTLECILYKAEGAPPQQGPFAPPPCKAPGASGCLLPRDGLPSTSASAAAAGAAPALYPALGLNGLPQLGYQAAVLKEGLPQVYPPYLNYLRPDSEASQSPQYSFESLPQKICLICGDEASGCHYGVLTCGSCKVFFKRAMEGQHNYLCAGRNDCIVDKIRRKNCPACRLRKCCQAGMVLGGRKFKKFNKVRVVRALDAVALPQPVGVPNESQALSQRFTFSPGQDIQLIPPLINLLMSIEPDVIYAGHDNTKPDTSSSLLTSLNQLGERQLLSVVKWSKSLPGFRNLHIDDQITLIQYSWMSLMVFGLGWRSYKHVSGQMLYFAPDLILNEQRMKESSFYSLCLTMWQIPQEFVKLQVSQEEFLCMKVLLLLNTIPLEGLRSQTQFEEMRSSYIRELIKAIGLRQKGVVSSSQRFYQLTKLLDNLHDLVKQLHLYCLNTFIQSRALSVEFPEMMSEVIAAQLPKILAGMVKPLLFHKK
Method: (§1) FIG. 8. PSF interferes with binding of PR DNA binding domain to PRE. (A) Electrophoretic mobility shift assay was performed with ^32P-labeled PRE incubated with in vitro translated PRDBD (1, 2, 5μl in lane 3 to 5 and 2 μl in lane 6 to 11) and increasing amount of bacterially expressed GST (lane 6 to 8) or GST PSF (lane 9 to 11). TNT lysate (lane 2) was used as negative control. (B) PR-Nuclear extraction (1 and 2 μg) as described in the method was incubated with PRE oligo in a dose dependent manner (lane 2 and 3). Anti-PR antiserum (AB-52) was added to the incubation mixture (lane 4). Addition of increasing dose (1 and 2 μl) of GST or GST-PSF in the same reaction as lane 3 was shown in lane 6, 7 and 9, 10. In the control experiments (lane 5 and 8), GST or GST-PSF was incubated with PRE without adding PR-nuclear extract. All reactions contain 10 nM progesterone.
(§2) For immunoprecipitation of the endogenous PR and PSF, T47D cells cultured in 150 mm dishes were lysed in 800 μl NETN buffer containing 150 mM NaCl plus protease inhibitor cocktail. […] Gels were treated with Enhancer (NEN, Boston, US) dried and analyzed by autoradiography. • Cell culture and transient transfection: SHM cells and 293T cells were maintained in DMEM plus 5% FCS (Sigma) as described before (22). […] Luciferase activity was determined by using the luciferin reagent (Promega) according to manufacture's protocol. […]

[4] = target: T3, PR DNA binding domain / PRE (Homo sapiens, UniProt P06401); assay: as above; details: in vitro translated PRDBD, 32P-labeled PRE
T3 construct: PR 556-650 was also inserted downstream of T7 promoter of pcDNA3; made in house; host or cells: rabbit reticulocyte lysate (TNT, Promega); GST-PSF from E. coli
T3 sequence (P06401 556-650): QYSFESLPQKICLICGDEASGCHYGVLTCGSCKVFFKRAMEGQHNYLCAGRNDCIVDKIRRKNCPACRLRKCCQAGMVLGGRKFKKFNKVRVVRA
Method: as §1, §2

For CC(=O)[C@H]1CC[C@H]2[C@@H]3CCC4=CC(=O)CC[C@]4(C)[C@H]3CC[C@]12C [progesterone], the Kd [1] is listed as 1 nM.

B1: His-PSF (6xHis-tagged full length human PSF, amino acid 1-707) (other)
chain: MSRDRFRSRGGGGGGFHRRGGGGGRGGLHDFRSPPPGMGLNQNRGPMGPGPGQSGPKPPIPPPPPHQQQQQPPPQQPPPQQPPPHQPPPHPQPHQQQQPPPPPQDSSKPVVAQGPGPAPGVGSAPPASSSAPPATPPTSGAPPGSGPGPTPTPPPAVTSAPPGAPPPTPPSSGVPTTPPQAGGPPPPPAAVPGPGPGPKQGPGPGGPKGGKMPGGPKPGGGPGLSTPGGHPKPPHRGGGEPRGGRQHHPPYHQQHHQGPPPGGPGGRSEEKISDSEGFKANLSLLRRPGEKTYTQRCRLFVGNLPADITEDEFKRLFAKYGEPGEVFINKGKGFGFIKLESRALAEIAKAELDDTPMRGRQLRVRFATHAAALSVRNLSPYVSNELLEEAFSQFGPIERAVVIVDDRGRSTGKGIVEFASKPAARKAFERCSEGVFLLTTTPRPVIVEPLEQLDDEDGLPEKLAQKNPMYQKERETPPRFAQHGTFEYEYSQRWKSLDEMEKQQREQVEKNMKDAKDKLESEMEDAYHEHQANLLRQDLMRRQEELRRMEELHNQEMQKRKEMQLRQEEERRRREEEMMIRQREMEEQMRRQREESYSRMGYMDPRERDMRMGGGGAMNMGDPYGSGGQKFPPLGGGGGIGYEANPGVPPATMSGSMMGSDMRTERFGQGGAGPVGGQGPRGMGPGTPAGYGRGREEYEGPNKKPRF
notes: Expressed in 293T or SHM cells (co-immunoprecipitation, reporter assays) or translated in rabbit reticulocyte lysate with ^35S methionine (GST pulldown); 1 only as 'e.g.' of wild type PSF; also called His tagged PSF; His tagged PSF1-707; not shown: N-terminal 6xHis tag of vector pcDNA3.1 6xHis
B1: binds [2].

B2: GST-PSF: bacterially expressed GST-PSF fusion protein (protein)
chain: MSRDRFRSRGGGGGGFHRRGGGGGRGGLHDFRSPPPGMGLNQNRGPMGPGPGQSGPKPPIPPPPPHQQQQQPPPQQPPPQQPPPHQPPPHPQPHQQQQPPPPPQDSSKPVVAQGPGPAPGVGSAPPASSSAPPATPPTSGAPPGSGPGPTPTPPPAVTSAPPGAPPPTPPSSGVPTTPPQAGGPPPPPAAVPGPGPGPKQGPGPGGPKGGKMPGGPKPGGGPGLSTPGGHPKPPHRGGGEPRGGRQHHPPYHQQHHQGPPPGGPGGRSEEKISDSEGFKANLSLLRRPGEKTYTQRCRLFVGNLPADITEDEFKRLFAKYGEPGEVFINKGKGFGFIKLESRALAEIAKAELDDTPMRGRQLRVRFATHAAALSVRNLSPYVSNELLEEAFSQFGPIERAVVIVDDRGRSTGKGIVEFASKPAARKAFERCSEGVFLLTTTPRPVIVEPLEQLDDEDGLPEKLAQKNPMYQKERETPPRFAQHGTFEYEYSQRWKSLDEMEKQQREQVEKNMKDAKDKLESEMEDAYHEHQANLLRQDLMRRQEELRRMEELHNQEMQKRKEMQLRQEEERRRREEEMMIRQREMEEQMRRQREESYSRMGYMDPRERDMRMGGGGAMNMGDPYGSGGQKFPPLGGGGGIGYEANPGVPPATMSGSMMGSDMRTERFGQGGAGPVGGQGPRGMGPGTPAGYGRGREEYEGPNKKPRF
modifications: left off: a dimerising Fc or GST
notes: bacterially expressed GST-PSF fusion protein
In the case of B2, the “association of full-length PR to PRE” value [3] is reported as “decrease of association of PR to PRE” and the “association of PRDBD to PRE” value [4] is reported as “decreased association of PRDBD to PRE”.
